Data: patent US20050176124

Target: T1, EGF receptor autophosphorylation site peptide DADEpYL-NH2
T1 chain: DADEYL

B1: DSP-3-glutathione-S-transferase (GST) fusion protein (protein)
chain: MGNGMNKILPGLYIGNFKDARDAEQLSKNKVTHILSVHDSARPMLEGVKYLCIPAADSPSQNLTRHFKESIKFIHECRLRGESCLVHCLAGVSRSVTLVIAYIMTVTDFGWEDALHTVRAGRSCANPNVGFQRQLQEFEKHEVHQYRQWLKEEYGESPLQDAEEAKNILAAPGILKFWAFLRRL
- Km (phosphatase assay, release of 32P from substrate peptide): Km=1.2 µM
- specific activity (phosphatase assay, release of 32P from substrate peptide): 88.4 nmol/min/mg
